Source: patent US20170204176A1 (MacroGenics, published 2017)

B1: EphA2 mAb 1×CD3 mAb 2×DR5 mAb 1 (other)
chain 1: DIQMTQTTSSLSASLGDRITISCRASQDISNYLNWYQQKPDGTVKLLIYYTSRLHSGVPSRFSGSGSGTDYSLTISNLEQEDIATYFCQQGYTLYTFGGGTKLEIKGGGSGGGGEVQLVESGGGLVQPGGSLRLSCAASGFTFSTYAMNWVRQAPGKGLEWVGRIRSKYNNYATYYADSVKGRFTISRDDSKNSLYLQMNSLKTEDTAVYYCVRHGNFGNSYVSWFAYWGQGTLVTVSSGGCGGGEVAALEKEVAALEKEVAALEKEVAALEKGGGDKTHTCPPCPAPEAAGGPSVFLFPPKPKDTLMISRTPEVTCVVVDVSHEDPEVKFNWYVDGVEVHNAKTKPREEQYNSTYRVVSVLTVLHQDWLNGKEYKCKVSNKALPAPIEKTISKAKGQPREPQVYTLPPSREEMTKNQVSLWCLVKGFYPSDIAVEWESNGQPENNYKTTPPVLDSDGSFFLYSKLTVDKSRWQQGNVFSCSVMHEALHNHYTQKSLSLSPGK
chain 2: QAVVTQEPSLTVSPGGTVTLTCRSSTGAVTTSNYANWVQQKPGQAPRGLIGGTNKRAPWTPARFSGSLLGGKAALTITGAQAEDEADYYCALWYSNLWVFGGGTKLTVLGGGGSGGGGQVQLKESGPGLVAPSQSLSITCTVSGFSLSRYSVHWVRQPPGKGLEWLGMIWGGGSTDYNSALKSRLSISKDNSKSQVFLKMNSLQTDDTAMYYCARKHGNYYTMDYWGQGTSVTVSSGGCGGGKVAALKEKVAALKEKVAALKEKVAALKE
heavy: EVKFLESGGGLVQPGGSLKLSCVASGFDFSRYWMSWVRQAPGKGLEWIGEINPDSNTINYTPSLKDKFIISRDNAKNTLYLQMTKVRSEDTALYYCTRRAYYGNPAWFAYWGQGTLVTVSSASTKGPSVFPLAPSSKSTSGGTAALGCLVKDYFPEPVTVSWNSGALTSGVHTFPAVLQSSGLYSLSSVVTVPSSSLGTQTYICNVNHKPSNTKVDKRVEPKSCDKTHTCPPCPAPEAAGGPSVFLFPPKPKDTLMISRTPEVTCVVVDVSHEDPEVKFNWYVDGVEVHNAKTKPREEQYNSTYRVVSVLTVLHQDWLNGKEYKCKVSNKALPAPIEKTISKAKGQPREPQVYTLPPSREEMTKNQVSLSCAVKGFYPSDIAVEWESNGQPENNYKTTPPVLDSDGSFFLVSKLTVDKSRWQQGNVFSCSVMHEALHNRYTQKSLSLSPGK
light: DIVLTQSPASLAVSLGQRATISCRASKSVSSSGYSYMHWYQQKPGQPPKVLIFLSSNLDSGVPARFSGSGSGTDFTLNIHPVEDGDAATYYCQHSRDLPPTFGGGTKLEIKRTVAAPSVFIFPPSDEQLKSGTASVVCLLNNFYPREAKVQWKVDNALQSGNSQESVTEQDSKDSTYSLSSTLTLSKADYEKHKVYACEVTHQGLSSPVTKSFNRGEC
notes: a Fab-type heavy chain with hole Fc; a kappa light chain
B2: gpA33 mAb 1×CD3 mAb 2×DR5 mAb 1 (other)
chain 1: DIQLTQSPSFLSASVGDRVTITCSARSSISFMYWYQQKPGKAPKLLIYDTSNLASGVPSRFSGSGSGTEFTLTISSLEAEDAATYYCQQWSSYPLTFGQGTKLEIKGGGSGGGGEVQLVESGGGLVQPGGSLRLSCAASGFTFSTYAMNWVRQAPGKGLEWVGRIRSKYNNYATYYADSVKGRFTISRDDSKNSLYLQMNSLKTEDTAVYYCVRHGNFGNSYVSWFAYWGQGTLVTVSSGGCGGGEVAALEKEVAALEKEVAALEKEVAALEKGGGDKTHTCPPCPAPEAAGGPSVFLFPPKPKDTLMISRTPEVTCVVVDVSHEDPEVKFNWYVDGVEVHNAKTKPREEQYNSTYRVVSVLTVLHQDWLNGKEYKCKVSNKALPAPIEKTISKAKGQPREPQVYTLPPSREEMTKNQVSLWCLVKGFYPSDIAVEWESNGQPENNYKTTPPVLDSDGSFFLYSKLTVDKSRWQQGNVFSCSVMHEALHNHYTQKSLSLSPGK
chain 2: QAVVTQEPSLTVSPGGTVTLTCRSSTGAVTTSNYANWVQQKPGQAPRGLIGGTNKRAPWTPARFSGSLLGGKAALTITGAQAEDEADYYCALWYSNLWVFGGGTKLTVLGGGGSGGGGQVQLVQSGAEVKKPGASVKVSCKASGYTFTGSWMNWVRQAPGQGLEWIGRIYPGDGETNYNGKFKDRVTITADKSTSTAYMELSSLRSEDTAVYYCARIYGNNVYFDVWGQGTTVTVSSGGCGGGKVAALKEKVAALKEKVAALKEKVAALKE
heavy: EVKFLESGGGLVQPGGSLKLSCVASGFDFSRYWMSWVRQAPGKGLEWIGEINPDSNTINYTPSLKDKFIISRDNAKNTLYLQMTKVRSEDTALYYCTRRAYYGNPAWFAYWGQGTLVTVSSASTKGPSVFPLAPSSKSTSGGTAALGCLVKDYFPEPVTVSWNSGALTSGVHTFPAVLQSSGLYSLSSVVTVPSSSLGTQTYICNVNHKPSNTKVDKRVEPKSCDKTHTCPPCPAPEAAGGPSVFLFPPKPKDTLMISRTPEVTCVVVDVSHEDPEVKFNWYVDGVEVHNAKTKPREEQYNSTYRVVSVLTVLHQDWLNGKEYKCKVSNKALPAPIEKTISKAKGQPREPQVYTLPPSREEMTKNQVSLSCAVKGFYPSDIAVEWESNGQPENNYKTTPPVLDSDGSFFLVSKLTVDKSRWQQGNVFSCSVMHEALHNRYTQKSLSLSPGK
light: DIVLTQSPASLAVSLGQRATISCRASKSVSSSGYSYMHWYQQKPGQPPKVLIFLSSNLDSGVPARFSGSGSGTDFTLNIHPVEDGDAATYYCQHSRDLPPTFGGGTKLEIKRTVAAPSVFIFPPSDEQLKSGTASVVCLLNNFYPREAKVQWKVDNALQSGNSQESVTEQDSKDSTYSLSSTLTLSKADYEKHKVYACEVTHQGLSSPVTKSFNRGEC
B3: EphA2 mAb 1×CD3 mAb 2×gpA33 mAb 1 (other)
chain 1: DIQMTQTTSSLSASLGDRITISCRASQDISNYLNWYQQKPDGTVKLLIYYTSRLHSGVPSRFSGSGSGTDYSLTISNLEQEDIATYFCQQGYTLYTFGGGTKLEIKGGGSGGGGEVQLVESGGGLVQPGGSLRLSCAASGFTFSTYAMNWVRQAPGKGLEWVGRIRSKYNNYATYYADSVKGRFTISRDDSKNSLYLQMNSLKTEDTAVYYCVRHGNFGNSYVSWFAYWGQGTLVTVSSGGCGGGEVAALEKEVAALEKEVAALEKEVAALEKGGGDKTHTCPPCPAPEAAGGPSVFLFPPKPKDTLMISRTPEVTCVVVDVSHEDPEVKFNWYVDGVEVHNAKTKPREEQYNSTYRVVSVLTVLHQDWLNGKEYKCKVSNKALPAPIEKTISKAKGQPREPQVYTLPPSREEMTKNQVSLWCLVKGFYPSDIAVEWESNGQPENNYKTTPPVLDSDGSFFLYSKLTVDKSRWQQGNVFSCSVMHEALHNHYTQKSLSLSPGK
chain 2: QAVVTQEPSLTVSPGGTVTLTCRSSTGAVTTSNYANWVQQKPGQAPRGLIGGTNKRAPWTPARFSGSLLGGKAALTITGAQAEDEADYYCALWYSNLWVFGGGTKLTVLGGGGSGGGGQVQLKESGPGLVAPSQSLSITCTVSGFSLSRYSVHWVRQPPGKGLEWLGMIWGGGSTDYNSALKSRLSISKDNSKSQVFLKMNSLQTDDTAMYYCARKHGNYYTMDYWGQGTSVTVSSGGCGGGKVAALKEKVAALKEKVAALKEKVAALKE
heavy: QVQLVQSGAEVKKPGASVKVSCKASGYTFTGSWMNWVRQAPGQGLEWIGRIYPGDGETNYNGKFKDRVTITADKSTSTAYMELSSLRSEDTAVYYCARIYGNNVYFDVWGQGTTVTVSSASTKGPSVFPLAPSSKSTSGGTAALGCLVKDYFPEPVTVSWNSGALTSGVHTFPAVLQSSGLYSLSSVVTVPSSSLGTQTYICNVNHKPSNTKVDKRVEPKSCDKTHTCPPCPAPEAAGGPSVFLFPPKPKDTLMISRTPEVTCVVVDVSHEDPEVKFNWYVDGVEVHNAKTKPREEQYNSTYRVVSVLTVLHQDWLNGKEYKCKVSNKALPAPIEKTISKAKGQPREPQVYTLPPSREEMTKNQVSLSCAVKGFYPSDIAVEWESNGQPENNYKTTPPVLDSDGSFFLVSKLTVDKSRWQQGNVFSCSVMHEALHNRYTQKSLSLSPGK
light: DIQLTQSPSFLSASVGDRVTITCSARSSISFMYWYQQKPGKAPKLLIYDTSNLASGVPSRFSGSGSGTEFTLTISSLEAEDAATYYCQQWSSYPLTFGQGTKLEIKRTVAAPSVFIFPPSDEQLKSGTASVVCLLNNFYPREAKVQWKVDNALQSGNSQESVTEQDSKDSTYSLSSTLTLSKADYEKHKVYACEVTHQGLSSPVTKSFNRGEC
B4: gpA33 mAb 1 x CD3 mAb 2 (bispecific antibody)
first polypeptide chain (VL gpA33 mAb 1 - Linker 1 - VH CD3 mAb 2 D65G - ASTKG - cysteine-containing E-coil): DIQLTQSPSFLSASVGDRVTITCSARSSISFMYWYQQKPGKAPKLLIYDTSNLASGVPSRFSGSGSGTEFTLTISSLEAEDAATYYCQQWSSYPLTFGQGTKLEIKGGGSGGGGEVQLVESGGGLVQPGGSLRLSCAASGFTFSTYAMNWVRQAPGKGLEWVGRIRSKYNNYATYYADSVKGRFTISRDDSKNSLYLQMNSLKTEDTAVYYCVRHGNFGNSYVSWFAYWGQGTLVTVSSASTKGEVAACEKEVAALEKEVAALEKEVAALEK
second polypeptide chain (VL CD3 mAb 2 - Linker 1 - VH gpA33 mAb 1 - ASTKG - cysteine-containing K-coil): QAVVTQEPSLTVSPGGTVTLTCRSSTGAVTTSNYANWVQQKPGQAPRGLIGGTNKRAPWTPARFSGSLLGGKAALTITGAQAEDEADYYCALWYSNLWVFGGGTKLTVLGGGGSGGGGQVQLVQSGAEVKKPGASVKVSCKASGYTFTGSWMNWVRQAPGQGLEWIGRIYPGDGETNYNGKFKDRVTITADKSTSTAYMELSSLRSEDTAVYYCARIYGNNVYFDVWGQGTTVTVSSASTKGKVAACKEKVAALKEKVAALKEKVAALKE

Columns and labels:
[1] = target: T1, DR5 on DR5-expressing CHO cells (UniProt O14763 56-440, limits assumed); assay: FACS on DR5-expressing CHO cells (Log MFI)
T1 construct: whole, on cells; also called DR5-expressing CHO target cells
Text: The ability of Tri-Specific Binding Molecules of the present invention to bind to target cells was investigated.

[2] = target: T2, EphA2 on EphA2-expressing CHO cells (UniProt P29317 24-976, limits assumed); assay: FACS on EphA2-expressing CHO cells (Log MFI)
T2 construct: whole, on cells; EphA2 mAb 1 is called an anti-human EphA2 antibody; also called EphA2-expressing CHO target cells

[3] = target: T3, EphA2 on DU145 human prostate cells (human, UniProt P29317 24-976); assay: FACS on DU145 cells (gpA33- EphA2+ DR5+), Log MFI; only the EphA2 domain has its antigen on these cells
T3 construct: whole, on cells; DU145 cells carry both EphA2 and DR5; also called DU145 cells (express EphA2 and DR5, not gpA33)

[4] = target: T4, DR5 on DU145 human prostate cells (human, UniProt O14763 56-440); assay: FACS on DU145 cells (gpA33- EphA2+ DR5+), Log MFI
T4 construct: whole, on cells; DU145 cells carry both EphA2 and DR5; also called DU145 cells (express EphA2 and DR5, not gpA33)

[5] = target: T3, EphA2 on DU145 human prostate cells; assay: FACS on DU145 cells (gpA33- EphA2+ DR5+), Log MFI

| Binder | EC50 (read off the curve) [1] [nM] | EC50 (read off the curve) [2] [nM] | binding result [2] | binding result [1] | EC50 (read off the curve) [3] [nM] | binding result [4] | binding result [5] |
| --- | --- | --- | --- | --- | --- | --- | --- |
| B1 | ~0.9 | ~0.7 | – | – | – | – | – |
| B2 | ~0.9 | – | no binding | – | – | – | – |
| B3 | – | ~0.9 | – | no binding | ~1 | – | – |
| B4 | – | – | no binding | no binding | – | no binding | no binding |
